Reference: patent publication US20090291088A1 (Biogen, published 2009)

B1: P2A7.3E11 (antibody, IgG2a, V domains shown)
VH: QVQLQQSGPELVKPGASVKMSCKASGNTFTDYVINWVKQRTGQGLEWIGEIYPGNENTYYNEKFKGKATLTADKSSNTAYMQLSSLTSEDSAVYFCARGIYYYGSRTRTMDYWGQGTSVTVSS
VL: EVVLTQSPTAMAASPGEKITITCSASSTLSSNYLHWYQQKPGFSPKLLIYRTSNLASGVPGRFSGSGSGTSYSLTIGTMEAEDVATYYCQQGSSIPLTFGAGTKLELK
notes: Murine hybridoma antibody, IgG2a/k; also called muP2A7
B2: P1E2.3B12 (antibody, IgG2b, V domains shown)
VH: QVQLQQPGAELVKPGASVKLSCKASGYTFTSYWMHWVKQRPGQGLEWIGEINPTYGRSNYNEKFKSKATLTVDKSSSTAYMQLSSLTSEDSAVYYCARLVRLRYFDVWGAGTTVTVSS
VL: DIVMTQAAFSNPVTLGTSASISCRSSKSLLHSNGITYLYWYLQKPGQSPQLLIYQMSNLASGVPDRFSSSGSGTDFTLRISRVEAEDVGVYYCAQNLELPYTFGGGTKLEIK
notes: Murine hybridoma antibody, IgG2b/k; also called P1E2 (hybridoma)
B3: P1A2.2B11 (antibody, IgG2b, V domains shown)
VH: QIQLVQSGPELKKPGETVKISCKASGYTFTNHGMNWVKQAPGKGLKWMGWNTSTGEPTYADDFKGRFAFSLETSASTAFLQINNLKNEDTASYFCASPLYYMYGRYIDVWGAGTAVTVSS
VL: DIQMTQTTSSLSASLGDRVTISCRASQDISNYLNWYQQKPDGTIKLLIYYTSRLHSGVPSRFSGSGSGTDYSLTISNLEQEDFATYFCQQGKTLPWTFGGGTKLEIK
notes: Murine hybridoma antibody, IgG2b/k
B4: P1G10.2B8 (antibody, IgG1, V domains shown)
VH: QIQLVQSGPDLKKPGETVKISCKASGYTFTNHGMNWVKQAPGKDLKWMGWINTNTGEPTYADDFKGRFAFSLETSASTAYLQINNLKNEDTATYFCASPLYYRNGRYFDVWGAGTTVTVSS
VL: DIQMTQTTSSLSASLGDRVTISCRASQDISNYLNWYQQKPDGSVKLLIYYTSRLHSGVPSRFSGSGSGTDYSLTISNLEQEDIATYFCQQGKTLPWTFGGGTKLEIK
notes: Murine hybridoma antibody, IgG1/k
B5: M12-G04.G4.P (antibody, human IgG4, V domains shown)
VH: EVQLLESGGGLVQPGGSLRLSCAASGFTFSKYTMHWVRQAPGKGLEWVSSIVSSGGWTDYADSVKGRFTISRDNSKNTLYLQMNSLRAEDTAVYYCARDRSIAAAGTGWSVSFVDWFDPWGQGTLVTVSS
VL: DIQMTQSPLSLSASVGDRVTITCRASQSINGYLNWYQQKPGKAPNLLIYATSSLQSGVPSRFSGSGSGTDFTLTISSLQPEDFATYYCQQSYSTPPYTFGQGTKLEIK
notes: Full-length human IgG4.P, kappa; also called G4 version of M12-G04

Key:
[1] = target: T1, human IGF-1R(1-902)-His10 (human, UniProt P08069 31-932); experiment: protein ELISA
T1 construct: Cy5-labelled in tr-FRET; also called hIGF-1R-His10; IGF-1R-His

[2] = target: T2, human IGF-1R expressed on cells (human, UniProt P08069 31-1367); experiment: binding to MCF-7 tumor cells
T2 construct: On MCF-7 tumor cells or on 3T3/CHO transfectants; precursor is processed into alpha and beta subunits; Signal peptide 1-30 left out as stated; also called wild type IGF-1R; IGF-1R 3T3

human IGF-1R(1-903)-Fc = target: T3, human IGF-1R(1-903)-Fc (human, UniProt P08069 31-933); experiment: ELISA, plate coated with soluble IGF-1 receptor Fc fusion protein, detection with anti-human kappa-HRP
T3 construct: Made by Biogen Idec; Multimerises through IGF-1R and Fc; also called hIGF-1R-Fc; IGF-1R-Fc; not shown: C-terminal human IgG1-Fc tag
Method: The plate was washed with phosphate-buffered saline (PBS, Irvine Scientific, Cat#9240), pH 7.4 plus 0.025% Tween 20 in the Skan Washer 300 (Skatron Instruments), blocked with buffer containing 1% nonfat milk, 0.05% Tween 20 in PBS, pH 7.4, and then incubated at room temperature for 1 hour. After incubation plate was washed with PBS plus 0.025% Tween 20 in the Skan Washer 300. […] Following a one hour incubation at room temperature, plate was washed with PBS plus 0.025% Tween 20 in the Skan Washer 300. […] Plate incubated for 1 hour at room temperature was washed with PBS plus 0.025% Tween 20 in the Skan Washer 300. […] The absorbance was measured at 450 nm, background 540 nm for TMB using the Molecular Devices plate reader. Data was analyzed using the SOFTMAX PRO software package version 4.3 LS (Molecular Devices Corp.).

| Binder | EC50 [1] [nM] | EC50 [2] [nM] | EC50 (read off the curve) (human IGF-1R(1-903)-Fc) [nM] |
| --- | --- | --- | --- |
| B1 | 0.011 | 0.447 | – |
| B2 | 0.016 | 0.391 | – |
| B3 | 0.023 | 1.1 | – |
| B4 | 0.075 | 2.06 | – |
| B5 | – | – | ~0.2 |
